US20150141617A1, “PRODUCTION AND PURIFICATION OF ACTIVE EUKARYOTIC FORMYLGLYCINEGENERATING ENZYME (FGE) VARIANTS” (Universität Bielefeld, priority 2013, published 2015)
The star is where a group is joined. Decanoyl = CCCCCCCCCC(=O)*; CH2Cl = ClC*

Tests used:
[1] = system: PCs (furin or furin-like convertases); assay: Treatment of HT1080 Tet-On cells expressing FGE with RVKR-CMK inhibitor; assay type: cell-based, human; settings: increasing concentrations of the inhibitor, 16 h
Method: (§1) CHO-FD11 cells stably expressing FGE-His6 or HT1080 cells were grown for 24 h, and cells and medium were harvested. For treatment with furin in vitro cell pellets were resuspended in HEPES pH 7.5 buffer containing 1 mM CaCl2 and 0.5% Triton X-100 and lysed in the absence of protease inhibitors by sonication on ice. Appropriate amounts of cell lysate and medium were incubated for 3 h at 25° C. with 4 units of furin (NEB) with or without 25 μM decanoyl-RVKR-CMK (Alexis biochemicals) as indicated in the figures. For in vivo treatment, HT1080 Tet-On cells were transiently transfected with pBI-FGE-HA and 4 h post-transfection, the medium was replenished with medium containing 20 ng/mL doxycycline and various concentrations of decanoyl-RVKR-CMK or only DMSO as a carrier control. The cells and medium were collected after 16 h of induction/treatment for further analysis. The samples were boiled in Laemmli buffer and analyzed by SDS-PAGE and western blotting with FGE antiserum.
In order to verify that the N-terminus of FGE containing the RYSR motif is subject to processing by furin or furin-like convertases, the inventors studied the secretion profile of FGE in cells in the presence of decanoyl-RVKR-ChloroMethylKetone (CMK), an inhibitor for PCs (FIG. 12A). […]

[2] = molecular target: T1, recombinant furin (rFurin) (Homo sapiens, UniProt P09958); assay: In vitro furin cleavage assay; assay type: biochemical; settings: 25 μM inhibitor, HT1080 cell lysate
T1 construct: purchased NEB
T1 sequence (P09958 108-794): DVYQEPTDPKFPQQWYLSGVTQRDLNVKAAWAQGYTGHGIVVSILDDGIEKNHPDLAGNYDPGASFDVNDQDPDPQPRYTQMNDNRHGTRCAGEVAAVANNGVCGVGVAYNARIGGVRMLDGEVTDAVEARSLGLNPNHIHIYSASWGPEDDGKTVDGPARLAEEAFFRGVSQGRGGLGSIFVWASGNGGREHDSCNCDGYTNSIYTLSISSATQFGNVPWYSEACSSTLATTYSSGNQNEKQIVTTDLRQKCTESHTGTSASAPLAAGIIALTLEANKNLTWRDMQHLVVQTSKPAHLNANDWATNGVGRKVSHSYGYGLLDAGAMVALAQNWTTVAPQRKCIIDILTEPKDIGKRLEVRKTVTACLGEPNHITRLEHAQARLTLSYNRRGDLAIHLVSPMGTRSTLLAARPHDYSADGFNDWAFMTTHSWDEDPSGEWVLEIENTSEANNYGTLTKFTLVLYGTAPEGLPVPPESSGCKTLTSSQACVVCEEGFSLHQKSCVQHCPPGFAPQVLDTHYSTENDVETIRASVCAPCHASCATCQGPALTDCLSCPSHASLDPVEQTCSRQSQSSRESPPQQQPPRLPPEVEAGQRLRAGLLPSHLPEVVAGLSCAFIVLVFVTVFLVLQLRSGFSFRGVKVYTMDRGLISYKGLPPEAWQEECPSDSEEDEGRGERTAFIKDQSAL
Method: as §1
In mammals, the proproteinconvertase family comprises nine enzymes that differ in their substrate specificity and tissue-specific expression and/or subcellular localization (17). Furin is the best characterized mammalian PC with a ubiquitous tissue distribution and it is the major convertase in the secretory pathway. To analyze the role of furin in the processing of FGE the inventors expressed FGE in cells that are deficient for furin. […] When cell homogenate and medium from CHO-FD11 cells stably expressing FGE-His were treated with commercially available recombinant furin (rFurin), almost half the amount of FGE was processed, as observed for both cells and medium (FIG. 12D). Using this in vitro furin cleavage assay, the inventors also examined whether endogenous intracellular FGE is susceptible to furin processing. Indeed, rFurin readily converted almost 90% of endogenous fl-FGE from untransfected HT1080 cells to the truncated form (FIG. 12E).
Although FGE is an ER resident protein, it lacks a canonical ER-retention motif. […] In this study, using the in vitro furin cleavage assay, the inventors assessed furin-mediated processing of the FGE-ERp44 covalent complex (FIG. 8). Homogenates, pre-treated with NEM (to prevent post-lysis disulfide shuffling), from HT1080 cells expressing either FGE alone or FGE plus myc-ERp44 together from a bi-directional promoter were incubated with rFurin and analyzed by SDS-PAGE under non-reducing conditions. Upon overexpression, intracellular FGE via its N-terminal cysteines (C50 and C52) forms covalently cross-bridged homodimers (FIG. 15, lane 1 and 2) and, additionally, FGE-ERp44 heterodimers when co-expressed with ERp44 (FIG. 15, lane 4 and 6) as previously observed (13). Removal of the N-terminus by furin cleavage should lead to a disappearance of the homo-/hetero-dimeric FGE forms, which serves as an indicator for accessibility of the furin cleavage motif in FGE.

[3] = molecular target: the molecule itself; assay: size exclusion chromatography (Superdex 200), non-reducing SDS-PAGE and western blot with FGE antiserum
Method: FIG. 16: Separation of the recombinant fl-FGE-R69A/R72A monomer and dimer by size-exclusion chromatography. (A) The pooled elution fractions from Ni-NTA purification (SM) were further purified in a Superdex (SD200 10/300 GL) column using Ettan LC system (GE health care). The eluted material in 0.5 ml of running buffer (20 mM Tris, pH 8.0 containing 200 mM NaCl) were collected and analyzed in SDS-PAGE under reducing conditions followed by coomassie staining (B) Equal volume of elution fractions obtained as shown in ‘(A)’ were resolved in SDS-PAGE under non-reducing conditions followed by western blot and membrane decorated with FGE anti-serum. (SM: starting material; FGE: monomer; FGE2: dimer).

[4] = molecular target: T2, 23 amino acid substrate peptide Ac-MTDFYVPVSLCTPSRAALLTGRS-NH2 (SEQ ID NO: 46)
T2 chain: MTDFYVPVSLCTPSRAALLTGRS

[5] = molecular target: T3, steroid sulfatase (STS), expressed from pBI-STS in MSDi Tet-On cells (UniProt P08842 22-583, limits assumed); assay: cell-based or functional assay
T3 sequence (looked up): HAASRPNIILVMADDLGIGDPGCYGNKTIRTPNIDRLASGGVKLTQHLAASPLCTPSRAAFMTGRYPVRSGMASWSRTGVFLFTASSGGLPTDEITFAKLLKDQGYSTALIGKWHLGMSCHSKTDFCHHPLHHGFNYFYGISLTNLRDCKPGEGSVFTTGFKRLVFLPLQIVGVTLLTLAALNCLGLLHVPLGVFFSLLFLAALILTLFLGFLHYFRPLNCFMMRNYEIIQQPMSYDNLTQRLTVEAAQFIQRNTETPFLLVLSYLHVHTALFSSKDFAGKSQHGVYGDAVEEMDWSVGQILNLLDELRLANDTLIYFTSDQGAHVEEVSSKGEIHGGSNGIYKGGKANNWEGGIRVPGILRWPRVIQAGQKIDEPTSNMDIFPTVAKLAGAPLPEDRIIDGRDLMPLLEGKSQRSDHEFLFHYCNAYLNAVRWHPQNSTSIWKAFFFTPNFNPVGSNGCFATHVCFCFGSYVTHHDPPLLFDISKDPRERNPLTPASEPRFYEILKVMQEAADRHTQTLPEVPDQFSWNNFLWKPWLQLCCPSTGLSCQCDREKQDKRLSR

Molecule: decanoyl-RVKR-ChloroMethylKetone (Decanoyl-RVKR-CH2Cl) [RVKR-CMK, reference compound]
- amount of the truncated form of FGE in the secretions [1]: decreased by the inhibitor in a concentration dependent manner
- inhibition of furin-mediated processing of FGE [2]: completely abrogated

B1: fl-FGE-R69A/R72A (SEQ ID NO: 4), produced in High Five insect cells (enzyme)
chain: ADEFSQEAGTGAGAGSLAGSCGCGTPQRPGAHGSSAAAHAYSAEANAPGPVPGERQLAHSKMVPIPAGVFTMGTDDPQIKQDGEAPARRVTIDAFYMDAYEVSNTEFEKFVNSTGYLTEAEKFGDSFVFEGMLSEQVKTNIQQAVAAAPWWLPVKGANWRHPEGPDSTILHRPDHPVLHVSWNDAVAYCTWAGKRLPTEAEWEYSCRGGLHNRLFPWGNKLQPKGQHYANIWQGEFPVTNTGEDGFQGTAPVDAFPPNGYGLYNIVGNAWEWTSDWWTVHHSVEETLNPKGPPSGKDRVKKGGSYMCHRSYCYRYRCAARSQNTPDSSASNLGFRCAADRLPTMDSGRGSHHHHHHH
notes: It has four extra N-terminal residues (ADEF), human FGE from S34 with R69A and R72A, and a C-terminal SGRGS-His7; After size exclusion it occurs as a monomer and as a disulfide-bridged dimer; also called Baculo-fl-FGE; recombinant fl-FGE-R69A/R72A
- binding result [3]: binds
- specific activity, FGly generation in the 23-aa substrate peptide (MALDI-ToF MS), 2 mM DTT as reductant [4]: 24.1±1.7 mU/mg in presence of the control reductant DTT
- specific activity, FGly generation in the 23-aa substrate peptide (MALDI-ToF MS), 5 mM GSH as reductant [4]: 15.6±1.3 mU/mg in presence of GSH

B2: FGE-HA (human formylglycine generating enzyme, wild type, C-terminal HA tag, expressed from pBI-FGE-HA in mammalian cells) (enzyme, UniProt Q8NBK3 34-374, looked up, not shown: small tags and cut ends)
chain: SQEAGTGAGAGSLAGSCGCGTPQRPGAHGSSAAAHRYSREANAPGPVPGERQLAHSKMVPIPAGVFTMGTDDPQIKQDGEAPARRVTIDAFYMDAYEVSNTEFEKFVNSTGYLTEAEKFGDSFVFEGMLSEQVKTNIQQAVAAAPWWLPVKGANWRHPEGPDSTILHRPDHPVLHVSWNDAVAYCTWAGKRLPTEAEWEYSCRGGLHNRLFPWGNKLQPKGQHYANIWQGEFPVTNTGEDGFQGTAPVDAFPPNGYGLYNIVGNAWEWTSDWWTVHHSVEETLNPKGPPSGKDRVKKGGSYMCHRSYCYRYRCAARSQNTPDSSASNLGFRCAADRLPTMD
- relative specific activity of STS after co-expression in immortalized MSD Tet-On cells [5]: ~50 fold
